Measured values reported in patent US20080220450A1, “Population Based Prediction Methods for Immune Response Determinations and Methods for Verifying Immunological Response Data” (Danisco US, Inc., Genencor Division, priority 2004, published 2008).

Biological target: HLA-DR6(13) (human)
Test: competition assay against a standard peptide on purified HLA class II

IC50: 0.69 nM
Substance: B. amyloliquifaciens subtilisin BPN' Y217L epitope peptide, amino acids 70-84 (from UniProt P00782 177-191)
